From PMC6393291 (Nucleic Acids Research, 2018)

Target: T1, MSL2-FLAG (D. melanogaster, UniProt P50534 1-773)
T1 sequence (looked up): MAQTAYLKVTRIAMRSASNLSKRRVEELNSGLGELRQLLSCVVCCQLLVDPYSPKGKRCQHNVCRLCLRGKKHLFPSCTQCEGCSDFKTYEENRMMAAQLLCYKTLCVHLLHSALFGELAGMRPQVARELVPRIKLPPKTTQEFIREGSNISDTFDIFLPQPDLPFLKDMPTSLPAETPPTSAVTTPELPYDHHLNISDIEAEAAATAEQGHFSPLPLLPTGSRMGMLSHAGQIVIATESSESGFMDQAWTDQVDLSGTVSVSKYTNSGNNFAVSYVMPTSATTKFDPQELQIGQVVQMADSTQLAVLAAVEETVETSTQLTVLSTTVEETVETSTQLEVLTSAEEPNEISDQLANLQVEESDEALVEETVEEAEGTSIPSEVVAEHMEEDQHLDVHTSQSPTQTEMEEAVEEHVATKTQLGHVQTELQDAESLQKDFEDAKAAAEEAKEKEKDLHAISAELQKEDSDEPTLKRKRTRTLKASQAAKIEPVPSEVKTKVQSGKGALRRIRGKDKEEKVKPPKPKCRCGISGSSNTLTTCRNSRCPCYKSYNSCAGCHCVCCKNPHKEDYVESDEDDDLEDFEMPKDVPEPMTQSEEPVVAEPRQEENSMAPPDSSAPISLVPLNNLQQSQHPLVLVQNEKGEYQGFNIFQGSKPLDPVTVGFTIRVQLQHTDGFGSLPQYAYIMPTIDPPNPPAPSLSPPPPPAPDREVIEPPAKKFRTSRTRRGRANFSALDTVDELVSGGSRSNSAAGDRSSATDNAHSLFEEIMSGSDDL
Experiment: co-IP

B1: CLAMP-FLAG (natural protein, D. melanogaster, UniProt Q9V9N4 1-561, looked up)
chain: MEDLTKNIIFTNAINGQPATIQYQTADGTILKQPKIEGQKTEQQPTFYYTTNGNGGTVNLAQLATTDDNKTCYIAQPVGGYNYALVNGMPLNQGAALGIATVDAQGRIQIVNQNKPIAANTISNISFKCDVCSDMFPHLALLNAHKRMHTDGEQQQQQQHNAQAGGDSIAVVSAQGLVQAQNIIGNGQMGQIQIVSSDTLEPVQQSVMQQQQHESKASKCINCGSSMLQQSKRKGPKQVRCESCMQAEQTAQQQQQLFVAQDGQMAHPVQIISTTPQAQAQLQQIVAAQTGGTTPKREASSGSGHHPVKKRNSQQMTKCQKCNGSGVVLVGQHSHASHSGVGGSVKQSVTVKTENPSKPFSCNICGGLFSRYSSLWSHKKLHSGEKNYKCSICGLAFAKAVYLKNHARIHTGEKPYKCQTCGMQFSQSPHLKNHERTHSGERPYVCGVCDKGFARHATLWNHRRIHTGEKPYKCEICGSAFSQAAHLKNHAKVHSGEKPYKCEICSAAFADRFALKRHRGIHQKYGQTAPRQTSSDGMIVHKQEIPDMEDEAQQEVIIGGL
B1: binds.
